For this assay, the target named is IMCC25003 KatG (bifunctional catalase-peroxidase of strain IMCC25003) ('Ca. Planktophila rubra' IMCC25003 (acI-A1 tribe, freshwater Actinobacteria)). Nature of the assay: SEC.

As to “IMCC25003 KatG (bifunctional catalase-peroxidase of strain IMCC25003) (enzyme)”, the stoichiometry N is 2.
